Values quoted from earlier work, collected in publication PMC2803043.

Biological target: Frizzled (Drosophila melanogaster) (UniProt P18537)
Chain of UniProt P18537 (P18537 19-581): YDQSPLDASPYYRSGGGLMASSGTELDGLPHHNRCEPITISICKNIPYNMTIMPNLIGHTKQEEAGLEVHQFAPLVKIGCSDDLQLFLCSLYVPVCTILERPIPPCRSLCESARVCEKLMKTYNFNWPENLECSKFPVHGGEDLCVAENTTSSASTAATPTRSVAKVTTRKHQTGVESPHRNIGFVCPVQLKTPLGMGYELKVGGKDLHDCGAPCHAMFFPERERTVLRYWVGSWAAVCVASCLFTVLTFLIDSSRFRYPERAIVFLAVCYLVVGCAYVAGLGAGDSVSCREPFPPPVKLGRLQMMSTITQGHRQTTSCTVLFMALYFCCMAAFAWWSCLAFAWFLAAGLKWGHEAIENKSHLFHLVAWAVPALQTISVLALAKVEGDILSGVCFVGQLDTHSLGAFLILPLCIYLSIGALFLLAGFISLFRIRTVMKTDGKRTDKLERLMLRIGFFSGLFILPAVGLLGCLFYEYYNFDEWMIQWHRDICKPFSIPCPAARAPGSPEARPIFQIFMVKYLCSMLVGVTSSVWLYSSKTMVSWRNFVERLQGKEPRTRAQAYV

- Kd: 10 µM
Substance: Dishevelled PDZ (from UniProt P51140)
